Laboratory results from US20120178701A1 (PALATIN TECHNOLOGIES, published 2012).
Bridge positions count the residues as written; N and C are the ends. Square brackets hold non-standard residues; d marks the D form. * marks the point of attachment. Pro(4R-Bn) = O=C(O)[C@@H]1C[C@@H](Cc2ccccc2)CN1; Orn = NCCC[C@H](N)C(=O)O; Dab = NCC[C@H](N)C(=O)O; NHcPr = C1CC1N*

B1: Ac-Arg-cyclo(Orn-Ala-D-Phe-Arg-Trp-Glu)-NH2 (peptide)
peptide: RXAFRWE
HELM: PEPTIDE1{[ac].R.[Orn].A.[dF].R.W.E.[am]}$PEPTIDE1,PEPTIDE1,3:R3-8:R3$$$V2.0
SMILES: CC(=O)N[C@@H](CCCNC(=N)N)C(=O)N[C@H]1CCCNC(=O)CC[C@@H](C(N)=O)NC(=O)[C@H](Cc2c[nH]c3ccccc23)NC(=O)[C@H](CCCNC(=N)N)NC(=O)[C@@H](Cc2ccccc2)NC(=O)[C@H](C)NC1=O
notes: also called peptide No. 120
B2: Ac-Arg-cyclo(Glu-Lys-D-Phe-Arg-Trp-Orn)-OH (peptide)
peptide: REKFRWX
HELM: PEPTIDE1{[ac].R.E.K.[dF].R.W.[Orn]}$PEPTIDE1,PEPTIDE1,3:R3-8:R3$$$V2.0
SMILES: CC(=O)N[C@@H](CCCNC(=N)N)C(=O)N[C@H]1CCC(=O)NCCC[C@@H](C(=O)O)NC(=O)[C@H](Cc2c[nH]c3ccccc23)NC(=O)[C@H](CCCNC(=N)N)NC(=O)[C@@H](Cc2ccccc2)NC(=O)[C@H](CCCCN)NC1=O
notes: also called peptide No. 89
B3: Ac-Arg-cyclo(Asp-Asn-D-Phe-Arg-Trp-Lys)-NH2 (peptide)
peptide: RDNFRWK
HELM: PEPTIDE1{[ac].R.D.N.[dF].R.W.K.[am]}$PEPTIDE1,PEPTIDE1,3:R3-8:R3$$$V2.0
SMILES: CC(=O)N[C@@H](CCCNC(=N)N)C(=O)N[C@H]1CC(=O)NCCCC[C@@H](C(N)=O)NC(=O)[C@H](Cc2c[nH]c3ccccc23)NC(=O)[C@H](CCCNC(=N)N)NC(=O)[C@@H](Cc2ccccc2)NC(=O)[C@H](CC(N)=O)NC1=O
notes: also called peptide No. 29
B4: Ac-Arg-cyclo(Asp-Leu-D-Phe-Arg-Trp-Lys)-NH2 (peptide)
peptide: RDLFRWK
HELM: PEPTIDE1{[ac].R.D.L.[dF].R.W.K.[am]}$PEPTIDE1,PEPTIDE1,3:R3-8:R3$$$V2.0
SMILES: CC(=O)N[C@@H](CCCNC(=N)N)C(=O)N[C@H]1CC(=O)NCCCC[C@@H](C(N)=O)NC(=O)[C@H](Cc2c[nH]c3ccccc23)NC(=O)[C@H](CCCNC(=N)N)NC(=O)[C@@H](Cc2ccccc2)NC(=O)[C@H](CC(C)C)NC1=O
notes: also called peptide No. 12
B5: Ac-Arg-cyclo(Asp-Lys-D-Phe-Lys-Trp-Lys)-NH2 (peptide)
peptide: RDKFKWK
HELM: PEPTIDE1{[ac].R.D.K.[dF].K.W.K.[am]}$PEPTIDE1,PEPTIDE1,3:R3-8:R3$$$V2.0
SMILES: CC(=O)N[C@@H](CCCNC(=N)N)C(=O)N[C@H]1CC(=O)NCCCC[C@@H](C(N)=O)NC(=O)[C@H](Cc2c[nH]c3ccccc23)NC(=O)[C@H](CCCCN)NC(=O)[C@@H](Cc2ccccc2)NC(=O)[C@H](CCCCN)NC1=O
notes: also called peptide No. 7
B6: Ac-Arg-cyclo(Asp-Tyr-D-Phe-Arg-Trp-Lys)-NH2 (peptide)
peptide: RDYFRWK
HELM: PEPTIDE1{[ac].R.D.Y.[dF].R.W.K.[am]}$PEPTIDE1,PEPTIDE1,3:R3-8:R3$$$V2.0
SMILES: CC(=O)N[C@@H](CCCNC(=N)N)C(=O)N[C@H]1CC(=O)NCCCC[C@@H](C(N)=O)NC(=O)[C@H](Cc2c[nH]c3ccccc23)NC(=O)[C@H](CCCNC(=N)N)NC(=O)[C@@H](Cc2ccccc2)NC(=O)[C@H](Cc2ccc(O)cc2)NC1=O
notes: also called peptide No. 11
B7: Ac-Lys-cyclo(Asp-His-D-Phe-Arg-Trp-Lys)-NH2 (peptide)
peptide: KDHFRWK
HELM: PEPTIDE1{[ac].K.D.H.[dF].R.W.K.[am]}$PEPTIDE1,PEPTIDE1,3:R3-8:R3$$$V2.0
SMILES: CC(=O)N[C@@H](CCCCN)C(=O)N[C@H]1CC(=O)NCCCC[C@@H](C(N)=O)NC(=O)[C@H](Cc2c[nH]c3ccccc23)NC(=O)[C@H](CCCNC(=N)N)NC(=O)[C@@H](Cc2ccccc2)NC(=O)[C@H](Cc2c[nH]cn2)NC1=O
notes: also called peptide No. 135
B8: Ac-Arg-cyclo(Asp-Gln-D-Phe-Arg-Trp-Lys)-NH2 (peptide)
peptide: Ac-RDQ[dF]RWK-NH2
modifications: lactam 2-7
notes: any difference is only in the drawings; also called peptide No. 78
B9: Ac-Arg-cyclo(Asp-His-D-Phe-Lys-Trp-Lys)-NH2 (peptide)
peptide: RDHFKWK
HELM: PEPTIDE1{[ac].R.D.H.[dF].K.W.K.[am]}$PEPTIDE1,PEPTIDE1,3:R3-8:R3$$$V2.0
SMILES: CC(=O)N[C@@H](CCCNC(=N)N)C(=O)N[C@H]1CC(=O)NCCCC[C@@H](C(N)=O)NC(=O)[C@H](Cc2c[nH]c3ccccc23)NC(=O)[C@H](CCCCN)NC(=O)[C@@H](Cc2ccccc2)NC(=O)[C@H](Cc2c[nH]cn2)NC1=O
notes: also called peptide No. 6
B10: Ac-Arg-cyclo(Asp-Met-D-Phe-Arg-Trp-Lys)-NH2 (peptide)
peptide: RDMFRWK
HELM: PEPTIDE1{[ac].R.D.M.[dF].R.W.K.[am]}$PEPTIDE1,PEPTIDE1,3:R3-8:R3$$$V2.0
SMILES: CSCC[C@@H]1NC(=O)[C@@H](NC(=O)[C@H](CCCNC(=N)N)NC(C)=O)CC(=O)NCCCC[C@@H](C(N)=O)NC(=O)[C@H](Cc2c[nH]c3ccccc23)NC(=O)[C@H](CCCNC(=N)N)NC(=O)[C@@H](Cc2ccccc2)NC1=O
notes: also called peptide No. 38
B11: Ac-Arg-cyclo(Asp-Trp-D-Phe-Arg-Trp-Lys)-NH2 (peptide)
peptide: RDWFRWK
HELM: PEPTIDE1{[ac].R.D.W.[dF].R.W.K.[am]}$PEPTIDE1,PEPTIDE1,3:R3-8:R3$$$V2.0
SMILES: CC(=O)N[C@@H](CCCNC(=N)N)C(=O)N[C@H]1CC(=O)NCCCC[C@@H](C(N)=O)NC(=O)[C@H](Cc2c[nH]c3ccccc23)NC(=O)[C@H](CCCNC(=N)N)NC(=O)[C@@H](Cc2ccccc2)NC(=O)[C@H](Cc2c[nH]c3ccccc23)NC1=O
notes: also called peptide No. 36
B12: Ac-Arg-cyclo(Asp-His-D-(alpha-Me)Phe-Arg-Trp-Lys)-NH2 (peptide)
peptide: RDHFRWK
HELM: PEPTIDE1{[ac].R.D.H.[C[C@](Cc1ccccc1)(N[*:1])C(=O)[*:2]].R.W.K.[am]}$PEPTIDE1,PEPTIDE1,3:R3-8:R3$$$V2.0
SMILES: CC(=O)N[C@@H](CCCNC(=N)N)C(=O)N[C@H]1CC(=O)NCCCC[C@@H](C(N)=O)NC(=O)[C@H](Cc2c[nH]c3ccccc23)NC(=O)[C@H](CCCNC(=N)N)NC(=O)[C@@](C)(Cc2ccccc2)NC(=O)[C@H](Cc2c[nH]cn2)NC1=O
notes: also called peptide No. 60
B13: Ac-Arg-cyclo(Asp-Ile-D-Phe-Arg-Trp-Lys)-NH2 (peptide)
peptide: RDIFRWK
HELM: PEPTIDE1{[ac].R.D.I.[dF].R.W.K.[am]}$PEPTIDE1,PEPTIDE1,3:R3-8:R3$$$V2.0
SMILES: CC[C@H](C)[C@@H]1NC(=O)[C@@H](NC(=O)[C@H](CCCNC(=N)N)NC(C)=O)CC(=O)NCCCC[C@@H](C(N)=O)NC(=O)[C@H](Cc2c[nH]c3ccccc23)NC(=O)[C@H](CCCNC(=N)N)NC(=O)[C@@H](Cc2ccccc2)NC1=O
notes: also called peptide No. 34

These binders were tested against T1, human recombinant melanocortin-4 receptor (human, UniProt P32245 1-332) (assay: competitive inhibition of Eu-NDP-α-MSH (TRF), hMC4-R HEK-293 membranes).
T1 construct: whole, on cells; cAMP assays used the whole cells; also called hMC4-R; MC4-R
T1 sequence (P32245 whole entry): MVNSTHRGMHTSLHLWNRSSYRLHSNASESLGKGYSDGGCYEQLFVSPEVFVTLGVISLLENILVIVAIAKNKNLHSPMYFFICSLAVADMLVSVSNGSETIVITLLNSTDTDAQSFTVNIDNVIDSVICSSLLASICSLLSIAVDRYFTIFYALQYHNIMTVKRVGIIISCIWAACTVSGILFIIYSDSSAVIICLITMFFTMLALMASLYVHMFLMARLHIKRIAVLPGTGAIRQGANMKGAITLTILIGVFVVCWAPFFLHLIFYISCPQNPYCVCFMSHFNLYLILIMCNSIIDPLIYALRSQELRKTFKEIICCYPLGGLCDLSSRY
Method: After incubation for 90 minutes at 37° C., the reaction was stopped by filtration over AcroWell 96-well filter plates (Pall Life Sciences). The filter plates were washed 4 times with 200 μL of ice-cold phosphate-buffered saline. DELFIA Enhancement solution (PerkinElmer Life Sciences) was added to each well. The plates were incubated on a shaker for 15 minutes and read at 340 nm excitation and 615 nm emission wavelengths. Each assay was conducted in duplicate and mean values were utilized. Ki values were determined by curve-fitting with Graph-Pad Prism® software using a one-site fixed-slope competition binding model.
9.1 Peptides of the following structures were synthesized by the general methods described above, and averaged MC4-R Ki values for peptides were determined as indicated. […] Ki values marked “ND” were not determined.

Row | Ki [nM] | Binder
1 | 1 | Ac-RKH[dF]RWD-NH2 (lactam 2-7, also called peptide No. 96) [Ac-Arg-cyclo(Lys-His-D-Phe-Arg-Trp-Asp)-NH2]
2 | 19 | Ac-RD[Pro(4R-3-Cl-Bzl)][dF]RWK-NH2 (lactam 2-7, also called peptide No. 124) [Ac-Arg-cyclo(Asp-Pro(4R-3-Cl-Bzl)-D-Phe-Arg-Trp-Lys)-NH2]
3 | 6 | Ac-REH[dF]RW[Orn]-NHEt (lactam 2-7, also called peptide No. 109) [Ac-Arg-cyclo(Glu-His-D-Phe-Arg-Trp-Orn)-NH-Et]
4 | 3 | Ac-RD[Pro(4R-Bn)][dF]RWK-NH2 (lactam 2-7, also called peptide No. 18) [Ac-Arg-cyclo(Asp-Pro(4R-Bzl)-D-Phe-Arg-Trp-Lys)-NH2]
5 | 3 | Ac-R[Orn][Dab][dF]RWE-NH2 (lactam 2-7, also called peptide No. 119) [Ac-Arg-cyclo(Orn-Dab-D-Phe-Arg-Trp-Glu)-NH2]
6 | 1 | Ac-REH[dF]RW[Orn]-NHcPr (lactam 2-7, also called peptide No. 110) [Ac-Arg-cyclo(Glu-His-D-Phe-Arg-Trp-Orn)-NH-cyclopropyl]
7 | 2 | Ac-[dR]D[Pro(4R-Bn)][dF]RWK-NH2 (lactam 2-7, also called peptide No. 72) [Ac-D-Arg-cyclo(Asp-Pro(4R-Bzl)-D-Phe-Arg-Trp-Lys)-NH2]
8 | 19 | B1
9 | 3 | Ac-K[Orn]H[dF]RWE-NH2 (lactam 2-7, also called peptide No. 132) [Ac-Lys-cyclo(Orn-His-D-Phe-Arg-Trp-Glu)-NH2]
10 | 8 | Ac-[dK][Orn]H[dF]RWE-NH2 (lactam 2-7) [Ac-D-Lys-cyclo(Orn-His-D-Phe-Arg-Trp-Glu)-NH2]
11 | 12 | Ac-R[Orn]H[dF]RWE-OH (lactam 2-7, also called peptide No. 84) [Ac-Arg-cyclo(Orn-His-D-Phe-Arg-Trp-Glu)-OH]
12 | 8 | Ac-RD[Pro(4R-2-Cl-Bzl)][dF]RWK-NH2 (lactam 2-7, also called peptide No. 123) [Ac-Arg-cyclo(Asp-Pro(4R-2-Cl-Bzl)-D-Phe-Arg-Trp-Lys)-NH2]
13 | 4 | Ac-[dR][Orn]H[dF]RWE-NH2 (lactam 2-7, also called peptide No. 98) [Ac-D-Arg-cyclo(Orn-His-D-Phe-Arg-Trp-Glu)-NH2]
14 | 9 | Ac-RE[Orn][dF]RW[Orn]-NH2 (lactam 2-7, also called peptide No. 104) [Ac-Arg-cyclo(Glu-Orn-D-Phe-Arg-Trp-Orn)-NH2]
15 | 1 | Ac-REH[dF]RW[Orn]-NH2 (lactam 2-7, also called peptide No. 64) [Ac-Arg-cyclo(Glu-His-D-Phe-Arg-Trp-Orn)-NH2]
16 | 113 | B2

Row | Ki [nM] | Binder
17 | 40 | Ac-[dR]EH[dF]RW[Orn]-OH (lactam 2-7, also called peptide No. 85) [Ac-D-Arg-cyclo(Glu-His-D-Phe-Arg-Trp-Orn)-OH]
18 | 32 | B3
19 | 33 | B4
20 | 2960 | B5
21 | 43 | B6
22 | 9 | B7
23 | 86 | B8
24 | 533 | B9
25 | 35 | B10
26 | 140 | Ac-RDT[dF]RWK-NH2 (lactam 2-7, also called peptide No. 35) [Ac-Arg-cyclo(Asp-Thr-D-Phe-Arg-Trp-Lys)-NH2]
27 | 37 | B11
28 | 47 | B12
29 | 46 | Ac-[dR]DA[dF]RWK-NH2 (lactam 2-7, also called peptide No. 70) [Ac-D-Arg-cyclo(Asp-Ala-D-Phe-Arg-Trp-Lys)-NH2]
30 | 19 | B13
31 | 64 | Ac-RDQ[dF]RWK-NHcPr (lactam 2-7) [Ac-Arg-cyclo(Asp-Gln-D-Phe-Arg-Trp-Lys)-NH-cyclopropyl]

Each binder was assayed against T1, human recombinant melanocortin-4 … (assay: cell-based or functional assay).

Row | hMC4-R Emax (%) | Binder
32 | 89 | Ac-[dR][Orn]Q[dF]RWE-NH2 (lactam 2-7) [Ac-D-Arg-cyclo(Orn-Gln-D-Phe-Arg-Trp-Glu)-NH2]

The binders below were run against human recombinant melanocortin-1 receptor (human, UniProt Q01726 1-317) (assay: cell-based or functional assay).
Chain of human recombinant melanocortin-1 receptor (Q01726 whole entry): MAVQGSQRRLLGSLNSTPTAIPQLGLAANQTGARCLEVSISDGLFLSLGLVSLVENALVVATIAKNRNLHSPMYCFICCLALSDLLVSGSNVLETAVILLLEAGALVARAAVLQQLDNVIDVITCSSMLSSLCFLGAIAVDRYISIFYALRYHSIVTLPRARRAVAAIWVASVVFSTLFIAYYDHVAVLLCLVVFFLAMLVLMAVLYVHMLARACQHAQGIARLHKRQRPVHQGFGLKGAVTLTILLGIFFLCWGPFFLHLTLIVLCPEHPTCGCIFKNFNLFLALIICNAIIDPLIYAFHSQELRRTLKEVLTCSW

Row | hMC1-R Emax (%) | Binder
33 | 89 | Ac-R[Orn]Q[dF]RWE-NH2 (lactam 2-7) [Ac-Arg-cyclo(Orn-Gln-D-Phe-Arg-Trp-Glu)-NH2]
34 | 85 | Ac-[dR][Orn]Q[dF]RWE-NH2 (lactam 2-7) [Ac-D-Arg-cyclo(Orn-Gln-D-Phe-Arg-Trp-Glu)-NH2]
